Consider two molecules from US20250145697A1 (WASHINGTON UNIVERSITY, published 2025).

The target of assay [1] is T1, heat-induced aggregates of ApoE4 (human, UniProt P02649 19-317).
T1 construct: mature; aggregated state of the recombinant protein; also called ApoE4 incubated at 40 C for 24 hr; heat-treated ApoE4
Nature of the assay: ELISA: total ApoE4 incubated at 40 C for 24 h loaded on the plate, HJ156 titrated, OD650. (In general: In an ELISA, binding on a coated surface is turned into a signal by an enzyme label.)

Assay [2] addresses T2, recombinant alipidated human ApoE3 (human, UniProt P02649 19-317).
T2 construct: mature; full length recombinant protein made in E. coli or bought
In words: ELISA, plate coated with 0.5 ug/ml recombinant apoE3, HRP goat anti-mouse detection, OD450. On the procedure:
ELISA plates were coated with 0.5 μg/ml of recombinant apoE2 (square), apoE3 (open circle), or apoE4 (closed circle). Then different concentrations of (A) HJ151, (B) HJ153, (C) HJ154, or (D) HJ156 were loaded on the plates. Horse-radish peroxidase labeled goat anti-mouse secondary antibodies were used to detect binding. […] HJ151 is specific for ApoE4 and HJ156 binds only ApoE3 and ApoE4. FIG. 5E-H are graphs depicting surface plasmon resonance profiles for various antibodies. Anti-ApoE antibodies were serially diluted 3-fold (starting at 100 nM for HJ153 (E), and 1000 nM for HJ151 (F), and […] (G)) for detection of binding to biotinylated-recombinant apoE4 captured on a streptavidin chip. Samples were injected at a flow rate of 30 μl/minute. (H) Apparent KD values of HJ151, HJ153 and HJ156 were calculated based on the SPR experiment.
ELISA plates were coated with 0.5 μg/ml of recombinant apoE2, apoE3, or apoE4. Then different concentrations of HJ151 (FIG. 5A), HJ153 (FIG. 5B), HJ154 (FIG. 5C), or HJ156 (FIG. 5D) were loaded on the plates. Horse-radish peroxidase labeled goat anti-mouse secondary antibodies were used to detect binding. […] HJ151 is specific for ApoE4 and HJ156 binds only ApoE3 and ApoE4. Surface plasmon resonance profiles for various antibodies was also performed.

Assay [3] has as its target T1, heat-induced aggregates of ApoE4. In words: ELISA: ApoE4 incubated at 40 C for 24 h, no denaturant, on the plate, HJ156 titrated, OD650. On the procedure:
1: untreated ApoE4. 2: ApoE4 that has been incubated at 40° C. for 24 hr. Supernatant(S) and pellet (P) from ultracentrifugation were resolved on SDS-PAGE and stained by Coomassie blue. (D) Binding of HJ156 to different preparations of ApoE4 loaded at the same concentration on the ELISA plate. Sup of untreated: Supernatant fraction of untreated ApoE4 from ultracentrifugation. Sup/Pel of 24h 40C: Supernatant/pellet fraction of ApoE4 incubated at 40° C. for 24 hour. (E) Binding of HJ156 to untreated and 40° C. incubated ApoE4 with and without denaturation by 1% SDS or 4M guanidine HCl.
In order to test whether HJ151 and HJ156 bind to some form of ApoE in the brain, unfixed frozen brain sections from APPPS1/APOE4 or APPPS1/EKO mice using HJ151 and HJ156 (FIG. 38A). The presence of Aβ plaques was confirmed with Aβ immunostaining using anti-Aβ antibody HJ3.4 on the sections from the same brain. […] Next, the ability of HJ156 to bind to an aggregated form of ApoE induced by incubation at 40° C. was queried. The binding of untreated ApoE to HJ151, HJ153 or HJ156 was compared to the binding of ApoE incubated at 40° C. to HJ151, HJ153 or HJ156. HJ153 bound to untreated ApoE or ApoE incubated at 40° C. similarly while HJ151 and HJ156 preferentially bound to ApoE incubated at 40° C. (FIG. 38B). […] Solubilization of the ApoE aggregates reduced their binding to HJ156. […]

Assay [4] has as its target T3, heat-induced aggregates of ApoE2 (human, UniProt P02649 19-317).
T3 construct: mature; aggregated state of the recombinant protein; also called heat treated ApoE2
Nature of the assay: ELISA: pellet of heat-aggregated ApoE2 coated at 0.5 ug/ml, antibody titrated, HRP goat anti-mouse IgG, OD650. On the procedure: The aggregated ApoE was induced by incubating ApoE at 1 mg/ml concentration at 40° C. for 24 hours. The aggregates then were recovered in the pellet fraction following ultracentrifugation at 186,000 g for 1 hour. For ELISA, the untreated ApoE or heat-induced aggregates of ApoE were coated directly to ELISA plates at 0.5 μg/ml overnight at 4° C. After three washes with PBS, the wells were blocked with 1% BSA-PBS for 1 hour at room temperature with shaking at 500 rpm. The blocked wells were washed once with PBS and subsequently loaded with antibodies at serial concentrations (starting at 100 nM with 5-fold dilutions thereafter). Bound antibodies were detected with HRP-labeled goat anti-mouse IgG (Jackson Immunoresearch) and visualized with TMB substrate at OD₆₅₀ (reaction stopped with BioFX stop solution).

For assay [5], the target named is T4, recombinant alipidated human ApoE2 (human, UniProt P02649 19-317).
T4 construct: mature; full length recombinant protein made in E. coli or bought
In words: direct ELISA on coated recombinant alipidated ApoE (0.5 ug/ml). The gist of the method:
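Antibody dose-response curves were built by HRP-conjugated goat anti-mouse IgG detection of anti-ApoE antibodies bound to blocked plates. The coat was full-length alipidated recombinant ApoE at 0.5 μg/ml, applied overnight, either E. coli-expressed and purified or commercially sourced.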

T1 sequence (P02649 19-317 C130R): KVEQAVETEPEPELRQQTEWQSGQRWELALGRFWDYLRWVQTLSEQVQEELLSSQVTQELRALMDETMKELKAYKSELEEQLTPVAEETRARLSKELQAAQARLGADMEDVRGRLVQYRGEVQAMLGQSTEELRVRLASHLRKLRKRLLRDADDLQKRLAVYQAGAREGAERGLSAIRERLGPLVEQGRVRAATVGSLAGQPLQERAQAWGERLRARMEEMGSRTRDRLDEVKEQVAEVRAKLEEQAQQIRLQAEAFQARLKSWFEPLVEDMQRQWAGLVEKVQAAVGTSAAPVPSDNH
T4 sequence (P02649 19-317 R176C): as the sequence (P02649 19-317 C130R) above, with R112C, R158C counted along it
T3 sequence (P02649 19-317 R176C): as the sequence (P02649 19-317 C130R) above, with R112C, R158C counted along it

B1: HJ156 (antibody, V domains shown)
VH: QVQLQQSGPELVKPGASVKISCKASGYIFTDYYINWVKRRPGQGLEWIGWIFPGSGVSYYNEQFKGKATLTVDKPSNTAYIFLSRLTSEDSAVYFCARYYSSSPFAYWGQGTLVTVSA
VL: DVLMTQTPLSLPVSLGDQASISCRSSQNIIHSNGNTYLEWFLQRPGQSPELLIYKVSNRFSGVPDRFSGSGSGTDFTLKISRVEAEDLGVYYCFQGSHVPYTFGGGTKLEIKR
notes: murine monoclonal antibody from hybridoma; also called HJ156B (biotinylated)
By EC50 (read off the curve) is commonly meant the concentration needed to bring the measured effect to its halfway point. Take B1: the 50% effective concentration (EC50 (read off the curve)) in assay [1] is ~0.1 nM; in assay [2] it was ~0.9 nM; in assay [3], ~0.1 nM.

B2: HJ154 (antibody, V domains shown)
VH: QVQLQQPGTEFVMSGASVMLSCKASGYIFTNYWLHWVKQRPGHGLEWIGEIDPSDSYSICNDNFKGKSTLTVDKSSSTAYMQLSSLTSEDSAVYYCAGSLGRVGLAYWGQGTLVTVST
VL: QIVLTQSPAIMSASPGEKVTMSCSASSSVSNMYWYQQKPGSSPKSWIYRTSNLASGVPARFSGSGSGTSYSLTISNMEAEDAATYYCQHYQNYPLTFGAGTKLELKR
notes: murine monoclonal antibody from hybridoma; also called HJ154B (biotinylated)
As a reminder, the EC50 is the midpoint of the concentration-response curve. As for B2, the 50% effective concentration (EC50 (read off the curve)) in assay [4] was in the range of 0.16 to 0.2 nM. For the same molecule, in assay [5], the half-maximal effective concentration (EC50) worked out at 0.25 nM.
